# From the supplement of paper PMC9112550, “Optimization of the antimicrobial peptide Bac7 by deep mutational scanning” (BMC Biology, 2022)
# Tested on: Escherichia coli TOP10
# Experiment: shrunken log2 fold change of peptide-encoding DNA abundance (4.5 h post-induction vs induction); higher = less antimicrobial activity (less host growth inhibition)
# Details: time post-induction: 4.5 h; library: site-saturation at positions 5, 18, 19, 20
# 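Further: peptides expressed intracellularly from a pBAD plasmid library in pooled LB shake-flask culture, induced with 0.3% L-arabinose, DNA abundance read by NGS, three biological replicates, DESeq2 with apeglm shrinkage.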
row,Sequence,shrunken log2 fold change
1,RRIRCRPPRLPRPRPRPPIEPRP,-0.0198
2,RRIRCRPPRLPRPRPRPPKAPRP,-0.112
3,RRIRCRPPRLPRPRPRPPKFPRP,-0.0746
4,RRIRCRPPRLPRPRPRPPLDPRP,0.616
5,RRIRCRPPRLPRPRPRPPMLPRP,0.0982
6,RRIRCRPPRLPRPRPRPPPKPRP,1.51
7,RRIRCRPPRLPRPRPRPPPLPRP,1.15
8,RRIRCRPPRLPRPRPRPPQFPRP,0.695
9,RRIRCRPPRLPRPRPRPPQQPRP,0.549
10,RRIRCRPPRLPRPRPRPPRVPRP,0.935
11,RRIRCRPPRLPRPRPRPPSEPRP,0.102
12,RRIRCRPPRLPRPRPRPPSFPRP,0.175
13,RRIRCRPPRLPRPRPRPPSIPRP,0.0499
14,RRIRCRPPRLPRPRPRPPTIPRP,-0.158
15,RRIRCRPPRLPRPRPRPPTNPRP,0.248
16,RRIRCRPPRLPRPRPRPPTYPRP,-0.133
17,RRIRCRPPRLPRPRPRPPVEPRP,0.35
18,RRIRCRPPRLPRPRPRPPVRPRP,0.519
19,RRIRCRPPRLPRPRPRPPWFPRP,-0.00887
20,RRIRCRPPRLPRPRPRPPWKPRP,0.195
21,RRIRCRPPRLPRPRPRPQAIPRP,-0.205
22,RRIRCRPPRLPRPRPRPQARPRP,-0.421
23,RRIRCRPPRLPRPRPRPQASPRP,-0.000207
24,RRIRCRPPRLPRPRPRPQCNPRP,-0.5
25,RRIRCRPPRLPRPRPRPQFEPRP,0.000801

row,Sequence,shrunken log2 fold change
1,RRIRCRPPRLPRPRPRPQFGPRP,-0.233
2,RRIRCRPPRLPRPRPRPQFTPRP,-0.427
3,RRIRCRPPRLPRPRPRPQHIPRP,-0.868
4,RRIRCRPPRLPRPRPRPQHMPRP,-0.74
5,RRIRCRPPRLPRPRPRPQHNPRP,-0.771
6,RRIRCRPPRLPRPRPRPQLQPRP,0.0481
7,RRIRCRPPRLPRPRPRPQNFPRP,-0.43
8,RRIRCRPPRLPRPRPRPQRGPRP,0.337
9,RRIRCRPPRLPRPRPRPQRYPRP,-0.105
10,RRIRCRPPRLPRPRPRPQSHPRP,-0.304
11,RRIRCRPPRLPRPRPRPQVDPRP,0.0243
12,RRIRCRPPRLPRPRPRPQVMPRP,-0.464
13,RRIRCRPPRLPRPRPRPQVTPRP,-0.102
14,RRIRCRPPRLPRPRPRPQWGPRP,0.502
15,RRIRCRPPRLPRPRPRPQWLPRP,-0.133
16,RRIRCRPPRLPRPRPRPQYTPRP,-0.946
17,RRIRCRPPRLPRPRPRPRAPPRP,0.87
18,RRIRCRPPRLPRPRPRPRASPRP,0.282
19,RRIRCRPPRLPRPRPRPRCMPRP,-0.143
20,RRIRCRPPRLPRPRPRPRDKPRP,0.0174
21,RRIRCRPPRLPRPRPRPRDYPRP,0.00558
22,RRIRCRPPRLPRPRPRPRGVPRP,0.69
23,RRIRCRPPRLPRPRPRPRKIPRP,0.245
24,RRIRCRPPRLPRPRPRPRLFPRP,0.437
25,RRIRCRPPRLPRPRPRPRLPPRP,0.382

row,Sequence,shrunken log2 fold change
1,RRIRCRPPRLPRPRPRPRMWPRP,0.0419
2,RRIRCRPPRLPRPRPRPRQEPRP,0.121
3,RRIRCRPPRLPRPRPRPRQYPRP,-0.15
4,RRIRCRPPRLPRPRPRPRRHPRP,-0.0331
5,RRIRCRPPRLPRPRPRPRSCPRP,-0.159
6,RRIRCRPPRLPRPRPRPRSFPRP,-0.342
7,RRIRCRPPRLPRPRPRPRSGPRP,0.694
8,RRIRCRPPRLPRPRPRPRVIPRP,0.0854
9,RRIRCRPPRLPRPRPRPRVRPRP,0.197
10,RRIRCRPPRLPRPRPRPRWHPRP,-0.00459
11,RRIRCRPPRLPRPRPRPRWNPRP,2.15
12,RRIRCRPPRLPRPRPRPRWTPRP,0.236
13,RRIRCRPPRLPRPRPRPRYPPRP,-0.00708
14,RRIRCRPPRLPRPRPRPSCRPRP,-0.685
15,RRIRCRPPRLPRPRPRPSEFPRP,-0.287
16,RRIRCRPPRLPRPRPRPSEVPRP,-0.328
17,RRIRCRPPRLPRPRPRPSEYPRP,-0.497
18,RRIRCRPPRLPRPRPRPSHAPRP,-0.375
19,RRIRCRPPRLPRPRPRPSKHPRP,-0.553
20,RRIRCRPPRLPRPRPRPSKWPRP,-0.0391
21,RRIRCRPPRLPRPRPRPSMMPRP,-0.307
22,RRIRCRPPRLPRPRPRPSNNPRP,-0.707
23,RRIRCRPPRLPRPRPRPSPFPRP,-0.0566
24,RRIRCRPPRLPRPRPRPSPHPRP,-0.144
25,RRIRCRPPRLPRPRPRPSQMPRP,-0.278

row,Sequence,shrunken log2 fold change
1,RRIRCRPPRLPRPRPRPSQRPRP,-0.54
2,RRIRCRPPRLPRPRPRPSRTPRP,0.0175
3,RRIRCRPPRLPRPRPRPSSNPRP,-0.715
4,RRIRCRPPRLPRPRPRPSTIPRP,0.255
5,RRIRCRPPRLPRPRPRPSVTPRP,-0.288
6,RRIRCRPPRLPRPRPRPSWLPRP,-0.547
7,RRIRCRPPRLPRPRPRPSWYPRP,-0.675
8,RRIRCRPPRLPRPRPRPSYMPRP,-0.646
9,RRIRCRPPRLPRPRPRPSYYPRP,-0.794
10,RRIRCRPPRLPRPRPRPTCNPRP,-0.265
11,RRIRCRPPRLPRPRPRPTEAPRP,0.425
12,RRIRCRPPRLPRPRPRPTENPRP,0.0623
13,RRIRCRPPRLPRPRPRPTFLPRP,-0.475
14,RRIRCRPPRLPRPRPRPTHNPRP,0.124
15,RRIRCRPPRLPRPRPRPTIEPRP,-0.276
16,RRIRCRPPRLPRPRPRPTKGPRP,-0.0938
17,RRIRCRPPRLPRPRPRPTLVPRP,0.12
18,RRIRCRPPRLPRPRPRPTMIPRP,-0.922
19,RRIRCRPPRLPRPRPRPTMQPRP,-0.0203
20,RRIRCRPPRLPRPRPRPTMSPRP,-0.139
21,RRIRCRPPRLPRPRPRPTNIPRP,-0.662
22,RRIRCRPPRLPRPRPRPTPQPRP,0.794
23,RRIRCRPPRLPRPRPRPTQVPRP,0.0177
24,RRIRCRPPRLPRPRPRPTRRPRP,0.391
25,RRIRCRPPRLPRPRPRPTSFPRP,-0.306

row,Sequence,shrunken log2 fold change
1,RRIRCRPPRLPRPRPRPTSWPRP,0.0567
2,RRIRCRPPRLPRPRPRPTTAPRP,0.166
3,RRIRCRPPRLPRPRPRPTVMPRP,0.0757
4,RRIRCRPPRLPRPRPRPTWCPRP,-0.0117
5,RRIRCRPPRLPRPRPRPVAIPRP,-0.156
6,RRIRCRPPRLPRPRPRPVASPRP,0.149
7,RRIRCRPPRLPRPRPRPVCLPRP,-0.168
8,RRIRCRPPRLPRPRPRPVDEPRP,2.09
9,RRIRCRPPRLPRPRPRPVDHPRP,-0.148
10,RRIRCRPPRLPRPRPRPVEAPRP,0.338
11,RRIRCRPPRLPRPRPRPVEKPRP,0.551
12,RRIRCRPPRLPRPRPRPVELPRP,0.103
13,RRIRCRPPRLPRPRPRPVFHPRP,-0.262
14,RRIRCRPPRLPRPRPRPVGVPRP,0.299
15,RRIRCRPPRLPRPRPRPVHHPRP,-0.176
16,RRIRCRPPRLPRPRPRPVICPRP,-0.241
17,RRIRCRPPRLPRPRPRPVLFPRP,-0.101
18,RRIRCRPPRLPRPRPRPVLNPRP,-0.396
19,RRIRCRPPRLPRPRPRPVLWPRP,0.136
20,RRIRCRPPRLPRPRPRPVMGPRP,0.111
21,RRIRCRPPRLPRPRPRPVQTPRP,-0.0555
22,RRIRCRPPRLPRPRPRPVRMPRP,-0.053
23,RRIRCRPPRLPRPRPRPVSWPRP,0.49
24,RRIRCRPPRLPRPRPRPVVHPRP,-0.55
25,RRIRCRPPRLPRPRPRPVVPPRP,-0.168

row,Sequence,shrunken log2 fold change
1,RRIRCRPPRLPRPRPRPVWFPRP,0.029
2,RRIRCRPPRLPRPRPRPVWVPRP,0.195
3,RRIRCRPPRLPRPRPRPVWYPRP,-0.184
4,RRIRCRPPRLPRPRPRPVYIPRP,-0.756
5,RRIRCRPPRLPRPRPRPVYTPRP,-0.222
6,RRIRCRPPRLPRPRPRPVYVPRP,-0.483
7,RRIRCRPPRLPRPRPRPWDEPRP,0.247
8,RRIRCRPPRLPRPRPRPWDIPRP,-0.179
9,RRIRCRPPRLPRPRPRPWDLPRP,0.129
10,RRIRCRPPRLPRPRPRPWETPRP,0.323
11,RRIRCRPPRLPRPRPRPWGNPRP,-0.256
12,RRIRCRPPRLPRPRPRPWGYPRP,-0.372
13,RRIRCRPPRLPRPRPRPWKAPRP,0.0231
14,RRIRCRPPRLPRPRPRPWKEPRP,0.124
15,RRIRCRPPRLPRPRPRPWKMPRP,-0.0124
16,RRIRCRPPRLPRPRPRPWLPPRP,-0.122
17,RRIRCRPPRLPRPRPRPWLSPRP,-0.215
18,RRIRCRPPRLPRPRPRPWMVPRP,-0.559
19,RRIRCRPPRLPRPRPRPWNRPRP,-0.162
20,RRIRCRPPRLPRPRPRPWNVPRP,-0.476
21,RRIRCRPPRLPRPRPRPWQTPRP,-0.0433
22,RRIRCRPPRLPRPRPRPWRFPRP,0.145
23,RRIRCRPPRLPRPRPRPWSAPRP,-0.308
24,RRIRCRPPRLPRPRPRPWVAPRP,-0.0206
25,RRIRCRPPRLPRPRPRPWWCPRP,-0.248
